# Where two headings read alike, the source gives them in different places.
# B1: FtsA R286W (protein)
# chain: MIKATDRKLVVGLEIGTAKVAALVGEVLPDGMVNIIGVGSCPSRGMDKGGVNDLESVVKCVQRAIDQAELMADCQISSVYLALSGKHISCQNEIGMVPISEEEVTQEDVENVVHTAKSVRVRDEHRVLHVIPQEYAIDYQEGIKNPVGLSGVRMQAKVHLITCHNDMAKNIVKAVERCGLKVDQLIFAGLASSYSVLTEDERELGVCVVDIGGGTMDIAVYTGGALRHTKVIPYAGNVVTSDIAYAFGTPPSDAEAIKVRHGCALGSIVGKDESVEVPSVGGRPPWSLQRQTLAEVIEPRYTELLNLVNEEILQLQEKLRQQGVKHHLAAGIVLTGGAAQIEGLAACAQRVFHTQVRIGAPLNITGLTDYAQEPYYSTAVGLLHYGKESHLNGEAEVEKRVTASVGSWIKRLNSWLRKEF
# modifications: Cy3 or Cy5 at the N-terminus in the labelled form (labelled CLEPTGG peptide conjugated to the 5xGly tag by sortagging); unlabelled protein also used; left off: TwinStrep-SUMO, N-terminal, cleaved | 5x
# Tests used:
# FtsZ [1] = conditions: for FtsZ autocorrelation T: mean; for Autocorrelation Decay Tau: Fig. S2i, + FtsN
# Source text: To measure reorganization dynamics of FtsZ filaments, we used a temporal correlation analysis based on the Image CorrelationJ 1o plugin. We quantified the PCC between the first frame to subsequent frames with increasing time lag (∆t). The decrease in the PCC was plotted against ∆t to obtain autocorrelation curves. Slower decay indicates more persistent structures. The rates of decay were extracted by fitting monoexponential decay to the autocorrelation curves y=a⋅e^−b⋅t+k , where a is the starting point, b is the decay rate and k is the final offset. The half time of the monoexponential decay was calculated via the decay rate.
# [2] = Membrane binding of FtsA by QCM-D
# Experimental: To quantify the intrinsic membrane-affinity of the two versions of FtsA, we used Quartz Crystal Microbalance with Dissipation (QCM-D) and measured the hydrated mass of adsorbed protein on a membrane surface.
# QCM-D experiments were performed with the QSense Analyzer from Biolin Scientific, equipped with silica-coated sensor (QSX 303). The sensors were cleaned for 10 s in a Zepto plasma cleaner, mounted in the QCM-D chambers and the acquisition of the experiment was first performed in the reaction buffer (50 mM Tris-HCl [pH 7.4], 150 mM KCl and 5 mM MgCl2). The supported lipid membrane was formed by rupturing 0.5 mM small unilamellar vesicles (SUVs) in the presence of MgCl2. The lipids used were 1,2-dioleoyl-sn-glycero-3-phosphocholine (DOPC) and 1,2-dioleoyl-sn-glycero-3-phospho-(1′-rac-glycerol) (DOPG) at a ratio of 67:33 mol%. After bilayer formations, the reaction buffer supplemented with 2 mM ATP, 2 mM GTP and 1 mM DTT was injected and the signal was recorded until a stable equilibrium was reached. Subsequently, increasing concentrations of FtsA were injected in the QCM-D chamber and changes in frequency and dissipation were monitored in real-time. The flow rate used in all experiments was 25 µl min^−1, and the temperature was set to 25 °C. To estimate the membrane-binding affinity, we extracted the frequency changes of the 5th acoustic harmonic for different FtsA concentrations and fitted a Hill equation y=S+(E−S)⋅(x^n/k^n+x^n) , where S is the starting point, E the end point, n is the Hill coefficient and k the dissociation constant. The measured binding affinity is an upper estimate, because QCM-D accounts not only on the dry molecular mass, but also on the hydration shell of the molecular assembly.
# FtsA/Z co-filaments = format: biochemical, E. coli; conditions: Fig. 2g, mean
# Experimental: By fitting an exponential function to the increase of the PCC with time, we were able to extract the corresponding recruitment rate (Fig. 2f, g).
# Subsequently, the chamber was washed 6x with reaction buffer, to remove bulk peptide. To visualize colocalization with either FtsZ or FtsA, either a mix of FtsA and Alexa488-FtsZ or Cy3-FtsA and FtsZ was added. […] The time-lapse videos were recorded for 10 min after the addition, with one frame per 2 s.
# FtsZ [3] = conditions: for PCCdiff FtsA/FtsZ: 1.25 µM FtsZ, mean ± s.d.
# Source text: For this aim, we prepared differential time lapse movies[24], where we subtract the intensities of consecutive frames to selectively visualize the growing ends of filament bundles (Fig. 1d). We then calculated the Pearson correlation coefficient between the two channels of the differential movies (PCCdiff), which quantifies the covariation of the fluorescence signals for FtsA and FtsZ at the growing end of a filament bundle with a time resolution of the acquisition rate[4],[23],[24].
# Treadmilling dynamics, were quantified using an automated image analysis protocol previously developed by our group[24]. To visualize colocalization of the co-treadmilling FtsZ & FtsA filaments, we used dual-colour videos obtained at an acquisition rate of one frame per 2 s. The two channels were aligned using FIJI’s 3TP align plugin. Both channels were then subjected to the image subtraction protocol and colocalization was measured as described above.
# FtsZ [4] = conditions: 1.25 µM FtsZ, FtsA 0.1–0.8 µM
# Experimental: Additionally, the reaction chamber contained 4 mM ATP and 4 mM GTP, as well as a scavenging system to minimize photobleaching effects: 30 mM d-glucose, 0.050 mg ml^−1 Glucose Oxidase, 0.016 mg ml^−1 Catalase, 1 mM DTT and 1 mM Trolox. Prior addition of all components a corresponding buffer volume was removed from the chamber to obtain a total reaction volume of 100 µl. The dynamic protein pattern was monitored by time-lapse TIRF microscopy at one frame per 2 s and 50 ms exposure time.
# Treadmilling dynamics, were quantified using an automated image analysis protocol previously developed by our group. To visualize colocalization of the co-treadmilling FtsZ & FtsA filaments, we used dual-colour videos obtained at an acquisition rate of one frame per 2 s. The two channels were aligned using FIJI’s 3TP align plugin. Both channels were then subjected to the image subtraction protocol and colocalization was measured as described above.
# 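Throughout, for Autocorrelation Decay Tau: FtsZ filament patterns imaged by time-lapse TIRF microscopy, one frame per 2 s, with ATP and GTP, Pearson correlation of first frame versus later frames, monoexponential fit, slower decay means persistent structures.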
# 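Throughout, for FtsZ autocorrelation T: FtsZ filament patterns imaged by time-lapse TIRF microscopy, one frame per 2 s, with ATP and GTP, Pearson correlation of first frame versus later frames, monoexponential fit, slower decay means persistent structures.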
# 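Throughout, for FtsZ autocorrelation: FtsZ filament patterns imaged by time-lapse TIRF microscopy, one frame per 2 s, with ATP and GTP, Pearson correlation of first frame versus later frames, monoexponential fit, slower decay means persistent structures.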
# 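Throughout, for PCC FtsA/FtsZ, mean of experiment (head 'Fig.1e PCC'; n and values fit Fig. 1f PCCdiff): pearson correlation of FtsA and FtsZ channels in dual-colour TIRF movies after subtracting consecutive frames to isolate growing filament ends, one frame per 2 s, ATP and GTP present.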
# 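Throughout, for PCCdiff FtsA/FtsZ: pearson correlation of FtsA and FtsZ channels in dual-colour TIRF movies after subtracting consecutive frames to isolate growing filament ends, one frame per 2 s, ATP and GTP present.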
molecule,measurement,setting,value
B1,FtsZ autocorrelation,"FtsZ [1]; 0.1 µM FtsA, Exp. 1",160.44 s
same,FtsZ autocorrelation,"FtsZ [1]; 0.1µM FtsA, Exp. 2",218.46 s
same,FtsZ autocorrelation T,FtsZ [1]; 0.10 µM FtsA,194.36 s
same,FtsZ autocorrelation,"FtsZ [1]; 0.2 µM FtsA, Exp. 1",153.77 s
same,FtsZ autocorrelation,"FtsZ [1]; 0.2µM FtsA, Exp. 2",78.66 s
same,FtsZ autocorrelation T,FtsZ [1]; 0.20 µM FtsA,136.59 s
same,FtsZ autocorrelation,"FtsZ [1]; 0.4 µM FtsA, Exp. 1",331.53 s
same,FtsZ autocorrelation,"FtsZ [1]; 0.4µM FtsA, Exp. 2",146.15 s
same,FtsZ autocorrelation T,FtsZ [1]; 0.40 µM FtsA,186.04 s
same,FtsZ autocorrelation,"FtsZ [1]; 0.8 µM FtsA, Exp. 1",113.86 s
same,FtsZ autocorrelation,"FtsZ [1]; 0.8µM FtsA, Exp. 2",144.33 s
same,Autocorrelation Decay Tau,FtsZ [1]; replicate 1,4.55 min
same,Autocorrelation Decay Tau,FtsZ [1]; replicate 2,8.41 min
same,Autocorrelation Decay Tau,FtsZ [1]; replicate 3,7.40 min
same,Mean of QCM-D experiments,[2]; 0.01 µM,0.81
same,Mean of QCM-D experiments,[2]; 0.05 µM,1.79
same,Mean of QCM-D experiments,[2]; 0.10 µM,3.36
same,amount of membrane-bound protein saturated at,[2]; QCM-D,0.8 µM
same,Kd,"[2]; QCM-D, Hill fit, 5th harmonic, DOPC:DOPG 67:33 mol%, pH 7.4, 150 mM KCl, 5 mM MgCl2, 2 mM ATP, 2 mM GTP, 25 °C, n = 2, upper estimate",0.32 ± 0.05 µM
same,Recruitment rate of FtsN to FtsZ filaments,FtsA/Z co-filaments; Concentration 0.10 µM,2.71
same,Recruitment rate of FtsN to FtsZ filaments,FtsA/Z co-filaments; Concentration 0.20 µM,3.32
same,Recruitment rate of FtsN to FtsZ filaments,FtsA/Z co-filaments; Concentration 0.40 µM,2.53
same,Recruitment rate of FtsN to FtsZ filaments,FtsA/Z co-filaments; Concentration 0.80 µM,2.36
same,"PCC FtsA/FtsZ, mean of experiment (head 'Fig.1e_PCC'; n and values fit Fig. 1f PCCdiff)","FtsZ [3]; 0.1µM FtsAs, replicate column 1",0.68
same,"PCC FtsA/FtsZ, mean of experiment (head 'Fig.1e_PCC'; n and values fit Fig. 1f PCCdiff)","FtsZ [3]; 0.1µM FtsAs, replicate column 2",0.67
same,"PCC FtsA/FtsZ, mean of experiment (head 'Fig.1e_PCC'; n and values fit Fig. 1f PCCdiff)","FtsZ [3]; 0.1µM FtsAs, replicate column 3",0.48
same,"PCC FtsA/FtsZ, mean of experiment (head 'Fig.1e_PCC'; n and values fit Fig. 1f PCCdiff)","FtsZ [3]; 0.2µM FtsAs, replicate column 1",0.74
same,"PCC FtsA/FtsZ, mean of experiment (head 'Fig.1e_PCC'; n and values fit Fig. 1f PCCdiff)","FtsZ [3]; 0.2µM FtsAs, replicate column 2",0.79
same,"PCC FtsA/FtsZ, mean of experiment (head 'Fig.1e_PCC'; n and values fit Fig. 1f PCCdiff)","FtsZ [3]; 0.2µM FtsAs, replicate column 3",0.75
same,"PCC FtsA/FtsZ, mean of experiment (head 'Fig.1e_PCC'; n and values fit Fig. 1f PCCdiff)","FtsZ [3]; 0.2µM FtsAs, replicate column 4",0.76
same,"PCC FtsA/FtsZ, mean of experiment (head 'Fig.1e_PCC'; n and values fit Fig. 1f PCCdiff)","FtsZ [3]; 0.2µM FtsAs, replicate column 5",0.68
same,PCCdiff FtsA/FtsZ,"FtsZ [3]; 0.4 µM FtsA, p-value 1.82 × 10^−4",0.76 ± 0.04
same,"PCC FtsA/FtsZ, mean of experiment (head 'Fig.1e_PCC'; n and values fit Fig. 1f PCCdiff)","FtsZ [3]; 0.4µM FtsAs, replicate column 1",0.72
same,"PCC FtsA/FtsZ, mean of experiment (head 'Fig.1e_PCC'; n and values fit Fig. 1f PCCdiff)","FtsZ [3]; 0.4µM FtsAs, replicate column 2",0.78
same,"PCC FtsA/FtsZ, mean of experiment (head 'Fig.1e_PCC'; n and values fit Fig. 1f PCCdiff)","FtsZ [3]; 0.4µM FtsAs, replicate column 3",0.82
same,"PCC FtsA/FtsZ, mean of experiment (head 'Fig.1e_PCC'; n and values fit Fig. 1f PCCdiff)","FtsZ [3]; 0.4µM FtsAs, replicate column 4",0.72
same,PCCdiff FtsA/FtsZ,FtsZ [3]; 0.8 µM FtsA R286W,0.76 ± 0.05
same,"PCC FtsA/FtsZ, mean of experiment (head 'Fig.1e_PCC'; n and values fit Fig. 1f PCCdiff)","FtsZ [3]; 0.8µM FtsAs, replicate column 1",0.79
same,"PCC FtsA/FtsZ, mean of experiment (head 'Fig.1e_PCC'; n and values fit Fig. 1f PCCdiff)","FtsZ [3]; 0.8µM FtsAs, replicate column 2",0.82
same,"PCC FtsA/FtsZ, mean of experiment (head 'Fig.1e_PCC'; n and values fit Fig. 1f PCCdiff)","FtsZ [3]; 0.8µM FtsAs, replicate column 3",0.76
same,"PCC FtsA/FtsZ, mean of experiment (head 'Fig.1e_PCC'; n and values fit Fig. 1f PCCdiff)","FtsZ [3]; 0.8µM FtsAs, replicate column 4",0.69
same,effect on FtsZ treadmilling velocity,FtsZ [4],could not detect a difference

# — publication PMC9098913, “In vitro reconstitution of Escherichia coli divisome activation” (Nature Communications, 2022)
